In patent US20110159013A1 one finds Kd data, which are given here for one substance.

The target of this test is ADDL fibril preparation (Aβ1-42 fibrils made in 10 mM hydrochloric acid). The test can be described thus: solution equilibrium titration; free IgG by ELISA; GraFit. A general note: ELISA stands for enzyme-linked immunosorbent assay.

The substance monoclonal antibody WO-2 displayed a Kd of 1.15 nM. This counts as single-digit nanomolar.

In general, Kd refers to the constant that tells how readily two partners part at equilibrium. The low end stands for higher affinity, the high end for lower affinity.
